Assay: label from the status in PepcDB records

Sequence | protein production
MKKMAAAESMEAEICINREIPPGLFPAVKGTDDLMAEGDIMSLLESIKKTEGGSGEVSVEDKMDEIFAKLEKSQVLLIQGDTGCGKTTKIPKYLLRKYGKIVCSQPRRIAAVSIAKKVAVDMKGKIGEDVGYSIRFDDMSSGRTRLKYVTDGVLLREIKNDKHLKKYDVVIIDEAHERSVNIDILLGYLKSILSERKDLRVVIMSATLNSEKFASFFRCQTVEIRHRMFPLEIFFLKKSDVADYVDEAMKTVVQIHRGEESGDILVFLTGRDEINSGREILMEVLGNDAEVCCIYSTLSPEEQEAVFRKTKKRKIVLATNIAETSITIEGVRYVVDSGRAKQMRYSASFGMDILEVVWISKAQAKQRAGRAGRTQAGKVFRMYSKEEYQKMDDNTTPEIFCCNLGKIVLELKSIGVDDIVNFNLIDKPDASNVKKALEMLYYLRAIGGDGKITSIGVKASTIPLDPELAVSLIVSSELGCLEDVSIIAAMLSVGNVWLDVPRYSQSYKAFLGARAAHFDKRGDHFLLLKIYRRWEKTGFKISHLKRWFLNVKTMLQTVKIKKQLCSMFRSPCKSDESGILPSLCAGYFMNVAKLVGESYVSIFNDTPCFIHYTSCMSRQNAKYILYHTLCRTGKEYARYCVGVTLEDLLKGANHMFAKVRKTEK | failed
VQIKNATAIVTGASSGIGLAFASLLAQKGYNLLLIARNINKLNDLAKTLSTQYDTQCNVLSIDLSEENASKKVLEYIITNNLNISVLINNAGFSGNYKFLEADWSQLSKELNVMSIAVTELCYLIAPLMEKNSWGRIINVSSGAAYLPPTQSLLYTGLKSYVLNFSQSLDMELKPKGINVTALCPGFTRSEFHNTMGTNKQVSKVPNFLWQAPDQVA | failed
MRDLITNRFTSQRTLREGSVGLLFLLGLGAFGVILLWLNRYTAAGSSYKAVVEFANAGGMQRGATVRYRGVKVGRISQIQPGPNAVEVEIEFAQSNLIIPRDVVIEANQTGLISESIIDITPKSSLPTGQTLPKPLDKNCDNSLIICNNSRLKGQIGISVDALIRSSTDFANTYTNPEFYQRVNRLLETSAQAATSVAALTQDFRGLTKSFQGQLGTFASTANTVQRATNELTVSTTKTVNQFGITADKFGTTATQASRLLSDLNSLLNTNRSSLVSALNNITETSNQLRLTVTNLSPSLNRLTQGELIKNLEALSANAAQASANLRNATESLNDPKNAVLLQQTLDSARLTFENTQKITSDLDELTGDPNFRQNLRQLVNGLSGLVSSTDQIEQQAKLATTLESMKAAADKPNITIPSLATHPSSNAVTIANNQPQVSSQEKLLQQLRDYAEQGSGEDKKQGSREQREELMKTDY | failed
DEGYWDCSVCTFRNSAEAFKCMMCDVRKGTSTRKPRPVSQ | not failed
MQPEITSYRHPATGTVSYLVVDPATFLCAIVDPVLDFDPVTEEIDTRFVDAIIADIRAKDLGPTWILETGLHTGHLSAAGHLKYETGASVCIGAGVVESLKRLAPQFGETMVDLDGWDFDKLAQDGDTFPMGGLEITPIALTGRLPGAVAYRMADMVFTGDLVLAPAEGSGRCDIPGADAGKAWDDARKILALPPETRIMPGVSATAACESTVADAKASNIQLNDTIDQLDFIALRTAADAFLPDPELAAAALRVAIRAGRPPSPPESGPRFPAVDLSKL | failed
MSRSRHCPAVLIAAPASGQGKTTVTAALARLHRNLGRKVRVFKCGPDFLDPMILERASGAPVYQLDLWMIGAEESRRLLWEAAGEADLILIEGVMGLFDGTPSSADLARHFGVPVLAVIDGTAMAQTFGALALGLARYQADLPFAGVLANRVGSLRHAQLLEGSLTEGLRWYGGLSRERGIELPSRHLGLVQASELNDLDTRLDAAAEALGASCDAALPPPVSFAEPEPQACVASLAGVRIGVARDEAFAFIYGANLDLLRNLGAQLVFFSPLHDHELPAVDSLYLPGGYPELHHHALAANAPMCEAIRAHHAQGKPLLAECGGMLYLLDALTDVAGERAELLGLLPGEATMQKRLAALALQAVELPEGTLRGHTYHHSLTSTALEPIARGLSPNGGRGNEAVYRLGRLTASYVHFYFPSCPDAAAALLRP | failed
MVVSVLMPTYNHERFIEQAILSFIQQQVDFDIELLIGDDCSSDNTSFIARIYAEKYPNKIHLFQYSVNRGLMHNYKYLLNQAKGKYIAILESDDIWLDPFKLHKQVEIIEKTPNCGLVFSNWIVIDADSKEVTRSQRTLKTIGYSDLLKSNMVAAVTVLFSRNMFDLYCDIDEYILRNFKTLDYPVWLSISAHSNIIYLDDYTAGYRCLSTSISNSNSYQRSMAFNQSIDAIVQYVVSKYGKGELTIKELENASKLRYLTQAFQFKKFSQAFSIAWTFHATNIKSFIIKVLPFIWLCKNRKLIGQRLK | failed
MALIETGPGSTVPMLQARLAARGLTPADVSEVFLTHIHLDHAGAAGHLARHGATIYAHHVGLPHLSDPARLLASARRIYGDDMDALWGEMHPVPDDQLVALNDGDTVPLGGEPLTALDTPGHASHHMSYVLGDVCFTGDVGGVRMPEERHVELPLAPPEIDLDAWRESLAALRAAADRHGLTHLAPTHFGLYDDLPAHFERLEAAIETADDWAARKLPGWDDGDEALQDAVTQWMRSRASDHGVDGDAWDRYERANPSWMAALGLRRYWTTQTA | failed
MSEAIRRAEAIDFGPDAQDLLWLSQDPVAVFDAEDRLRAANPAYCATFGCDPAEAPSWRQIMRRNHAMRQGALIVTEDFEGWLAAAAASRGRVPFRAYEAALHDGRWIWITETTAPDGRMLVHATDVTRLRSESLALRSERDAAQRASWTDPLTGVPNRRFVMDHLERWLDQQPRHGTFGTHALAVMDLDRFKQVNDLYGHTAGDAVLVSFCRITTDSIRSVDLFGRFGGEEFVLFMPNCPLETAQARLERLQEALAVAVVSPDLPALRCTFSAGLVAMRRDKDVHHAIRRADRLLYRAKADGRACVRAEI | failed
MESIQSSLKHMTGNRSFEKQFTQLKEAVFRSPHVQLFLEEHPSLSPITLEQGLSKLYEYQKEQSHCAHCPGLQKCPNLMKGYQPTLYVERDSLELSYSPCPLKEEEEREKKKRSLIRSLYIPKEILEAKFDDVESEPGRSIASHRALEFALSAKPGEDGMGLYLYGKFGVGKTFLMGAIANELKDRGIDSTIVYVPDFFRELKQSIGDGTFQQKLDFVKNAQVLIFDDIGAETMTSWVRDDVLGVILQYRIMEKLPTLFTSNYDYDELEEHLAYNDKSGTELLKAKRVMERIRHYTVSVMVQGQNRREHQSLEHHHHHH | not failed
MTETKPRIAIRYCTQCNWLLRAGWMAQEILQTFASDIGEVSLIPSTGGLFEITVDGTIIWERKRDGGFPGPKELKQRIRDLIDPERDLGHVDRTKHEGLDTLEHHHHHH | not failed
MDFPQHSQHVLEQLNQQRQLGLLCDCTFVVDGVHFKAHKAVLAACSEYFKMLFVDQKDVVHLDISNAAGLGQVLEFMYTAKLSLSPENVDDVLAVATFLQMQDIITACHALKSLAEPATSPGGNAEALATEGGDKRAKEEKVATSTLSRLEQAGRSTPIGPSRDLKEER | failed
SLRKERARSAEEPWTQNQQKLLELALQQYPRGSSDCWDKIARCVPSKSKEDCIARYKLLV | not failed
MNRRVVIVTAVHGPSAPFLPEAYASLCAQELPDGWEWRWVIQEDGRTQDVRPHVPDDPRVVFHQGRHGRQGGPGVARTMALAHADGAYVKVLDADDRLTPGALARDLAALEADPSIGWATSRVLDLLPDGSTAGFPGDPAHGPIERGEVLDFWRANGFRAQVHPATLLVRRDLLLAVGGWMALPASEDTGLLLALNCVSRGWFTEDVGLLYRKWEGQETGQASHVDPAERDARMTVVEARARALASFGWRLPEGTGDFDHLEHHHHHH | failed
MNYKVLAYITAYNDYFALNRCIDGLINQTYKIDYLLIVDNSSRPIPIQKLGNNLSIEVQHHPENIGVAGGLTLGIQYAIHKKFDFIWLFDQDSTPYENALENLIYFYDKYINKSEIGILSCAVQDRETGQINCGFIYKNYRFYQQQIDSRKAVYECDAVITSGTLLNCHAAKEIGLPNESLFMDAVDFDYCMKLRKQDYKIFTVCNAKINHRFGNSKSIQLFNRTKFIYLYSSLRYFYVHRNHTYLETRLAKNCLFFIISTFYRIFKSFRKIFVILLFEDSQRLLKIYACSKGTVDGLLGKLGKTWT | failed
MPTISTSVCVNYTQDQMYELVNDVADYPKYLPLCRDVRVLSAADRHIKATITLAKGAVRLNFTTANTMEPGRHIHMKLVDGPFKYLRGNWRFDANPHGGCDVSFRVDFEFANPLLQMALGGIFREVMESLVAAFCNQAAKRYGNAGPALPPGQAQDGVGRSGSV | failed
MIDILPLLDWHHFVYFAIPAVLLLIVSALFALYQRRVWAICIAIAAACVLMFFIGGMWHSLERPPLRTMGETRLWYSFFVIIAGLIIYIRWKYRWILSFATVLSTVFMIINIAKPDIHNKTLMPALESPFFVPHVISYIFAYAMLGAALLVGGYFLFCKRKHKEVNAKVMMHTTDNLVYTGFAFLMTGLLLGAIWAKLAWGTYWNWDPKETWAAITVFSYLLYIHHRLHRPRAFAHSLVLLIVSFLFLQICWYGVNYLPSAKDSSIHTYTR | failed
MQLITFLHEFIKHPKHTGAIAPSSKILAKKMVDVIDFNKAKCIVELGPGTGVFTKEIMKRKKKETIFLLIEINEVFFKELKRKFKDEQNVIVVHGSAENIKKYMGEHNIECIDYVLSGLPFTSLPEEVSKRILNNAMEAIHENGEFITFQYSLVKKGFIQHFFPEITLEKVWLNFPPAYVFSCKKELRRAYA | failed
AFAVLTTAGSRPVLSFLWVEPAARRQGLARELLMALAQQFPGIGTSVTVPETFTPLFAAAGYTPLSLQQYEMTMDLADAKSA | failed
MNRHLIHRRDILDTLVADLQAQQPDHIAVTGDLVNIALVNEFAPARQWLESVGPADRVSLVPGNHDAYVRSTAHRFAETFPDYISGDDATPGFPYLRRREAIAIIGVSSAVPTAPLRATGWLGAPQRAALEALLQSLAGERVFKVLLIHHPLQSRSRHKRLTDAADLIALLQRHPVDLVLHGHDHVHATVRIDTPFGAIPVVGVPSASAMNDRHRPSAAYNLFKISEGNDGWRCLEHHHHHH | failed
MAGLAARLVLLAGAAALASGSQGDREPVYRDCVLQCEEQNCSGGALNHFRSRQPIYMSLAGWTCRDDCKYECMWVTVGLYLQEGHKVPQFHGKWPFSRFLFFQEPASAVASFLNGLASLVMLCRYRTFVPASSPMYHTCVAFAWVSLNAWFWSTVFHTRDTDLTEKMDYFCASTVILHSIYLCCVRTVGLQHPAVVSAFRALLLLMLTVHVSYLSLIRFDYGYNLVANVAIGLVNVVWWLAWCLWNQRRLPHVRKCVVVVLLLQGLSLLELLDFPPLFWVLDAHAIWHISTIPVHVLFFSFLEDDSLYLLKESEDKFKLD | failed
MSLELPFSNQSIIPAAHNQKDMEKILELDLTYMVMLETHVAQLKALVKYAQAGGKKVLLHADLVNGLKNDDYAIDFLCTEICPDGIISTRGNAIMKAKQHKMLAIQRLFMIDSSAYNKGVALIQKVQPDCIELLPGIIPEQVQKMTQKLHIPVIAGGLIETSEQVNQVIASGAIAVTTSNKHLWEGHHHHHH | not failed
MHAFPLTLDNRLAEALPLWRNLARTDRAPRRNIDLADWKADWRELIAALDRFSRSHGYRQPFAAQGHAALENAWAWGQAAENASTLLLKAIDRGLAGAELRSIYLETAALWLDYSRLLGAARDSLREQGEVDFETAPALAPRTGQYPFALQLLAMGVLLDAQELIPALVEEVLQFDTDRLLDYLGAAALGLTSASEETFHPRPFGQLRAFFEEADGSDAQALAPYLQSQYREFFQLSPKAQKKTRRLTGPYAWGWWAMEVSALGVLYGWDDGVLRASPHYLGDLVDYARARGDA | not failed
MVGIRKRKDFFEDFGSELFDNLEEMIEALLEEMGDSVPFVYGFSIIHRPGEDPELREFGNVPEYPQQEENFFPSETKEPLIDIFENENMVHVLAEFPEIEKEDILLHATGQHLEIKVLGLSEYTEDVDLPVRVDPKSAKASYKNGVLEVTFRRCSEESPVEIEINLEHHHHHH | not failed

Reference: a protein production outcome set (Wang et al. 2014)
